# Assay results published in patent US20150140169.
# T1: alpha-s1 casein from Bos taurus
# T1 chain: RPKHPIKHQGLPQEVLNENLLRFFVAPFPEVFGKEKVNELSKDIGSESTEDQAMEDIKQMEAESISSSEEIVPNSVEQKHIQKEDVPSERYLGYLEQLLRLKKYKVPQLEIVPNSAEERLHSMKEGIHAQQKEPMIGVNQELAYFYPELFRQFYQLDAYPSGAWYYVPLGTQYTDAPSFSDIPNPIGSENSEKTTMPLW
# Biological target: T1, alpha-s1 casein from Bos taurus
Protein,"(αSN1-1)/(αSN1), 6 hours, 11° C.","(αSN1-1)/(αSN1), 24 hours, 11° C.","αs1-I CN, 6 hours, 11° C.","αs1-I CN, 24 hours, 11° C.","αs1 CN, 6 hours, 11° C.","αs1 CN, 24 hours, 11° C.",hydrolysis of the first cut in alpha-s1-casein,"small, 6 hours, 11° C.","small, 24 hours, 11° C.","αs1-I CN/αs1 CN, 6 hours, 11° C."
camel chymosin variant #159 (L295I) (protein) GKVAREPLTSYLDSQYFGKIYIGTPPQEFTVVFDTGSSDLWVPSIYCKSNVCKNHHRFDPRKSSTFRNLGKPLSIHYGTGSMEGFLGYDTVTVSNIVDPNQTVGLSTEQPGEVFTYSEFDGILGLAYPSLASEYSVPVFDNMMDRHLVARDLFSVYMDRNGQGSMLTLGAIDPSYYTGSLHWVPVTLQQYWQFTVDSVTINGVAVACVGGCQAILDTGTSVLFGPSSDILKIQMAIGATENRYGEFDVNCGNLRSMPTVVFEINGRDYPLSPSAYTSKDQGFCTSGFQGDNNSEIWILGDVFIREYYSVFDRANNRVGLAKAI,0.6,1.8,1.7e+07 Volume,1.97e+07 Volume,2.95e+07 Volume,1.11e+07 Volume,–,–,–,–
camel chymosin variant #160 (L295K) (protein) GKVAREPLTSYLDSQYFGKIYIGTPPQEFTVVFDTGSSDLWVPSIYCKSNVCKNHHRFDPRKSSTFRNLGKPLSIHYGTGSMEGFLGYDTVTVSNIVDPNQTVGLSTEQPGEVFTYSEFDGILGLAYPSLASEYSVPVFDNMMDRHLVARDLFSVYMDRNGQGSMLTLGAIDPSYYTGSLHWVPVTLQQYWQFTVDSVTINGVAVACVGGCQAILDTGTSVLFGPSSDILKIQMAIGATENRYGEFDVNCGNLRSMPTVVFEINGRDYPLSPSAYTSKDQGFCTSGFQGDNNSEKWILGDVFIREYYSVFDRANNRVGLAKAI,0.6,2.1,1.81e+07 Volume,2.49e+07 Volume,2.95e+07 Volume,1.2e+07 Volume,–,–,–,–
camel chymosin variant #156 (D290S) (protein) GKVAREPLTSYLDSQYFGKIYIGTPPQEFTVVFDTGSSDLWVPSIYCKSNVCKNHHRFDPRKSSTFRNLGKPLSIHYGTGSMEGFLGYDTVTVSNIVDPNQTVGLSTEQPGEVFTYSEFDGILGLAYPSLASEYSVPVFDNMMDRHLVARDLFSVYMDRNGQGSMLTLGAIDPSYYTGSLHWVPVTLQQYWQFTVDSVTINGVAVACVGGCQAILDTGTSVLFGPSSDILKIQMAIGATENRYGEFDVNCGNLRSMPTVVFEINGRDYPLSPSAYTSKDQGFCTSGFQGSNNSELWILGDVFIREYYSVFDRANNRVGLAKAI,0.5,1.9,1.7e+07 Volume,3.16e+07 Volume,3.15e+07 Volume,1.71e+07 Volume,–,–,–,–
camel chymosin variant #161 (L295M) (protein) GKVAREPLTSYLDSQYFGKIYIGTPPQEFTVVFDTGSSDLWVPSIYCKSNVCKNHHRFDPRKSSTFRNLGKPLSIHYGTGSMEGFLGYDTVTVSNIVDPNQTVGLSTEQPGEVFTYSEFDGILGLAYPSLASEYSVPVFDNMMDRHLVARDLFSVYMDRNGQGSMLTLGAIDPSYYTGSLHWVPVTLQQYWQFTVDSVTINGVAVACVGGCQAILDTGTSVLFGPSSDILKIQMAIGATENRYGEFDVNCGNLRSMPTVVFEINGRDYPLSPSAYTSKDQGFCTSGFQGDNNSEMWILGDVFIREYYSVFDRANNRVGLAKAI,0.6,2,1.96e+07 Volume,2.23e+07 Volume,3.15e+07 Volume,1.1e+07 Volume,–,–,–,–
camel chymosin variant #164 (L295Y) (protein) GKVAREPLTSYLDSQYFGKIYIGTPPQEFTVVFDTGSSDLWVPSIYCKSNVCKNHHRFDPRKSSTFRNLGKPLSIHYGTGSMEGFLGYDTVTVSNIVDPNQTVGLSTEQPGEVFTYSEFDGILGLAYPSLASEYSVPVFDNMMDRHLVARDLFSVYMDRNGQGSMLTLGAIDPSYYTGSLHWVPVTLQQYWQFTVDSVTINGVAVACVGGCQAILDTGTSVLFGPSSDILKIQMAIGATENRYGEFDVNCGNLRSMPTVVFEINGRDYPLSPSAYTSKDQGFCTSGFQGDNNSEYWILGDVFIREYYSVFDRANNRVGLAKAI,0.6,1.8,1.59e+07 Volume,2.66e+07 Volume,2.49e+07 Volume,1.49e+07 Volume,–,–,–,–
bovine chymosin B variant #6 (K221M) (protein) GEVASVPLTNYLDSQYFGKIYLGTPPQEFTVLFDTGSSDFWVPSIYCKSNACKNHQRFDPRKSSTFQNLGKPLSIHYGTGSMQGILGYDTVTVSNIVDIQQTVGLSTQEPGDVFTYAEFDGILGMAYPSLASEYSIPVFDNMMNRHLVAQDLFSVYMDRNGQESMLTLGAIDPSYYTGSLHWVPVTVQQYWQFTVDSVTISGVVVACEGGCQAILDTGTSMLVGPSSDILNIQQAIGATQNQYGEFDIDCDNLSYMPTVVFEINGKMYPLTPSAYTSQDQGFCTSGFQSENHSQKWILGDVFIREYYSVFDRANNLVGLAKAI,–,–,1.89e+07 Volume,2.22e+07 Volume,1.81e+07 Volume,5.1e+06 Volume,"show a clear hydrolysis of the first cut in alpha-s1-casein, leading to a rapid formation of fragment alpha-s1-I casein",0 Volume,4.3e+06 Volume,1

# Same assay, conditions: not given
row,Protein,"αs1-I CN/αs1 CN, 24 hours, 11° C."
1,bovine chymosin B variant #6 (K221M) (protein) GEVASVPLTNYLDSQYFGKIYLGTPPQEFTVLFDTGSSDFWVPSIYCKSNACKNHQRFDPRKSSTFQNLGKPLSIHYGTGSMQGILGYDTVTVSNIVDIQQTVGLSTQEPGDVFTYAEFDGILGMAYPSLASEYSIPVFDNMMNRHLVAQDLFSVYMDRNGQESMLTLGAIDPSYYTGSLHWVPVTVQQYWQFTVDSVTISGVVVACEGGCQAILDTGTSMLVGPSSDILNIQQAIGATQNQYGEFDIDCDNLSYMPTVVFEINGKMYPLTPSAYTSQDQGFCTSGFQSENHSQKWILGDVFIREYYSVFDRANNLVGLAKAI,4.3
